Test results as given in article PMC8983781.
One block for each molecule: values may come before it.

What was measured:
[1] = target: SP-C L188Q with the site 2 mutations (human) (UniProt P11686); test: co-IP; 293T cells co-transfected with an SP-C construct and one co-chaperone (BiP co-transfected in the GRP170 experiments; 20 mM NEM in wash and lysis for ERdj5); NP-40 lysates 24 h after transfection, immunoprecipitated with anti-SP-C overnight at 4 °C, Protein A agarose, washed with buffer containing 0.4 M NaCl; co-chaperones detected by western blot; in Fig. 4 signals normalised to SP-C and expressed as percent of parental L188Q
[2] = target: 3HA-tagged SP-C L188Q (human) (UniProt P11686)
[3] = substrate: SP-C L188Q with the site 2 mutations (human) (UniProt P11686); test: co-IP; 293T cells co-transfected with an SP-C construct and one co-chaperone (BiP co-transfected in the GRP170 experiments; 20 mM NEM in wash and lysis for ERdj5); NP-40 lysates 24 h after transfection, immunoprecipitated with anti-SP-C overnight at 4 °C, Protein A agarose, washed with buffer containing 0.4 M NaCl; co-chaperones detected by western blot; in Fig. 4 signals normalised to SP-C and expressed as percent …

Molecule: wild-type surfactant protein C (SP-C) proprotein, untagged (from UniProt P11686 1-58) (natural protein)
percent of wild-type SP-C that is palmitoylated (a measure of transport to the Golgi) when co-expressed with the L188Q mutant; 17.6% when expressed alone [2]: 10%

B2: GRP170 (human) (natural protein)
chain: LAVMSVDLGSESMKVAIVKPGVPMEIVLNKESRRKTPVIVTLKENERFFGDSAASMAIKNPKATLRYFQHLLGKQADNPHVALYQARFPEHELTFDPQRQTVHFQISSQLQFSPEEVLGMVLNYSRSLAEDFAEQPIKDAVITVPVFFNQAERRAVLQAARMAGLKVLQLINDNTATALSYGVFRRKDINTTAQNIMFYDMGSGSTVCTIVTYQMVKTKEAGMQPQLQIRGVGFDRTLGGLEMELRLRERLAGLFNEQRKGQRAKDVRENPRAMAKLLREANRLKTVLSANADHMAQIEGLMDDVDFKAKVTRVEFEELCADLFERVPGPVQQALQSAEMSLDEIEQVILVGGATRVPRVQEVLLKAVGKEELGKNINADEAAAMGAVYQAAALSKAFKVKPFVVRDAVVYPILVEFTREVEEEPGIHSLKHNKRVLFSRMGPYPQRKVITFNRYSHDFNFHINYGDLGFLGPEDLRVFGSQNLTTVKLKGVGDSFKKYPDYESKGIKAHFNLDESGVLSLDRVESVFETLVEDSAEEESTLTKLGNTISSLFGGGTTPDAKENGTDTVQEEEESPAEGSKDEPGEQVELKEEAEAPVEDGSQPPPPEPKGDATPEGEKATEKENGDKSEAQKPSEKAEAGPEGVAPAPEGEKKQKPARKRRMVEEIGVELVVLDLPDLPEDKLAQSVQKLQDLTLRDLEKQEREKAANSLEAFIFETQDKLYQPEYQEVSTEEQREEISGKLSAASTWLEDEGVGATTVMLKEKLAELRKLCQGLFFRVEERKKWPERLSALDNLLNHSSMFLKGARLIPEMDQIFTEVEMTTLEKVINETWAWKNATLAEQAKLPATEKPVLLSKDIEAKMMALDREVQYLLNKAKFTKPRPRPKDKNGTRAEPPLNASASDQGEKVIPPAGQTEDAEPISEPEKVETGSEPGDTEPLELGGPGAEPEQKEQSTGQKRPLKNDEL
percent of the binding to parental L188Q [3]: 30%

More lines, now with the values ahead:

percent reduction of binding against parental L188Q [1]: 70%
Molecule: ERdj4-3HA (mouse) (from UniProt Q9QYI6 24-222) (natural protein)

percent reduction of binding against parental L188Q [3]: 30%
B1: ERdj5 (mouse) (natural protein)
chain: DQNFYSLLGVSKTASSREIRQAFKKLALKLHPDKNPNNPNAHGDFLKINRAYEVLKDEDLRKKYDKYGEKGLEDNQGGQYESWSYYRYDFGIYDDDPEIITLERREFDAAVNSGELWFVNFYSPGCSHCHDLAPTWREFAKEVDGLLRIGAVNCGDDRMLCRMKGVNSYPSLFIFRSGMAAVKYNGDRSKESLVAFAMQHVRSTVTELSTGNFVNAIETAFAAGVGWLITFCSKGEDCLTSQTRLRLSGMLDGLVNVGWVDCDAQDSLCKSLDTTASTTAYFPPGATLNDREKSSVLFLNSLDAKEIYMEIIHNLPDFELLSANQLEDRLAHHRWLVFFHFGKNENANDPELKKLKTLLKNEHIQVGRFDCSSAPGICSDLYVFQPCLAVFKGQGTKEYEIHHGKKILYDILAFAKESVNSHVTTLGPQNFPASDKEPWLVDFFAPWCPPCRALLPELRKASTLLYGQLKVGTLDCTIHEGLCNMYNIQAYPTTVVFNQSSIHEYEGHHSAEQILEFIEDLRNPSVVSLTPSTFNELVKQRKHDEVWMVDFYSPWCHPCQVLMPEWKRMARTLTGLINVGSVDCQQYHSFCTQENVQRYPEIRFYPQKSSKAYQYHSYNGWNRDAYSLRSWGLGFLPQASIDLTPQTFNEKVLQGKTHWVVDFYAPWCGPCQNFAPEFELLARMIKGKVRAGKVDCQAYPQTCQKAGIKAYPSVKLYQYERAKKSIWEEQINSRDAKTIAALIYGKLETLQSQVKRNKDEL
